How the values were obtained:
CNP = CNP (UniProt P09543); experiment: co-IP, anti-FLAG, lysate of N-FLAG B3GNT2 cells, mass spectrometry
SERPINE2 = SERPINE2 (UniProt P07093); experiment: as above
CALM2 = CALM2 (UniProt P0DP24); experiment: as above
OS9 = OS9 (UniProt Q13438); experiment: as above
PSMA4 = PSMA4 (UniProt P25789); experiment: as above
RPL18A = RPL18A (UniProt Q02543); experiment: as above
PRR4 = PRR4 (UniProt Q16378); experiment: as above
LOXL4 = LOXL4 (UniProt Q96JB6); experiment: as above
DPM1 = DPM1 (UniProt O60762); experiment: as above
CSPG4 = CSPG4 (UniProt Q6UVK1); experiment: as above
SMN1 = SMN1 (UniProt Q16637); experiment: as above
SLC25A10 = SLC25A10 (UniProt Q9UBX3); experiment: as above
RPL29 = RPL29 (UniProt P47914); experiment: as above
TRIM28 = TRIM28 (UniProt Q13263); experiment: as above
SLC25A3 = SLC25A3 (UniProt Q00325); experiment: as above
SRSF7 = SRSF7 (UniProt Q16629); experiment: as above
HSPA5 = HSPA5 (UniProt P11021); experiment: as above
SEC16A = SEC16A (UniProt O15027); experiment: as above
HSPH1 = HSPH1 (UniProt Q92598); experiment: as above
LRPPRC = LRPPRC (UniProt P42704); experiment: as above
PSMA1 = PSMA1 (UniProt P25786); experiment: as above
ALDOA = ALDOA (UniProt P04075); experiment: as above
RAB1B = RAB1B (UniProt Q9H0U4); experiment: as above
SUPT16H (human) [1] = molecular target: SUPT16H (human) (UniProt Q9Y5B9); experiment: IgG control IP from lysate of cells overexpressing C-FLAG B3GNT2, then mass spectrometry
KHDRBS1 (human) = KHDRBS1 (human) (UniProt Q07666); experiment: as above
TFAM (human) [2] = molecular target: TFAM (human) (UniProt Q00059); experiment: as above
CPSF6 (human) = CPSF6 (human) (UniProt Q16630); experiment: as above
SRP14 (human) [3] = molecular target: SRP14 (human) (UniProt P37108); experiment: as above
EIF3I (human) [4] = molecular target: EIF3I (human) (UniProt Q13347); experiment: as above
CAPRIN1 (human) = CAPRIN1 (human) (UniProt Q14444); experiment: as above
SUPT16H (human) [5] = molecular target: SUPT16H (human) (UniProt Q9Y5B9); experiment: co-IP with mouse anti-FLAG from lysate of cells overexpressing C-FLAG B3GNT2, then mass spectrometry
TIMP3 (human) = TIMP3 (human) (UniProt P35625); experiment: as above
TCP1 (human) = TCP1 (human) (UniProt P17987); experiment: as above
MAGED2 (human) = MAGED2 (human) (UniProt Q9UNF1); experiment: as above
TFAM (human) [6] = molecular target: TFAM (human) (UniProt Q00059); experiment: as above
TAF15 (human) = TAF15 (human) (UniProt Q92804); experiment: as above
SRP14 (human) [7] = molecular target: SRP14 (human) (UniProt P37108); experiment: as above
EIF3I (human) [8] = molecular target: EIF3I (human) (UniProt Q13347); experiment: as above

Chain of SRP14 (human) (P37108 2-136 limits assumed): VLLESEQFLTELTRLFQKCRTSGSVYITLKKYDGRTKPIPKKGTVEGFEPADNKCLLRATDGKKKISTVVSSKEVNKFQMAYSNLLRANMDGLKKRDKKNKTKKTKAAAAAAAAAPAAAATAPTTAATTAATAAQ
Chain of SUPT16H (human) (Q9Y5B9 2-1047 limits assumed): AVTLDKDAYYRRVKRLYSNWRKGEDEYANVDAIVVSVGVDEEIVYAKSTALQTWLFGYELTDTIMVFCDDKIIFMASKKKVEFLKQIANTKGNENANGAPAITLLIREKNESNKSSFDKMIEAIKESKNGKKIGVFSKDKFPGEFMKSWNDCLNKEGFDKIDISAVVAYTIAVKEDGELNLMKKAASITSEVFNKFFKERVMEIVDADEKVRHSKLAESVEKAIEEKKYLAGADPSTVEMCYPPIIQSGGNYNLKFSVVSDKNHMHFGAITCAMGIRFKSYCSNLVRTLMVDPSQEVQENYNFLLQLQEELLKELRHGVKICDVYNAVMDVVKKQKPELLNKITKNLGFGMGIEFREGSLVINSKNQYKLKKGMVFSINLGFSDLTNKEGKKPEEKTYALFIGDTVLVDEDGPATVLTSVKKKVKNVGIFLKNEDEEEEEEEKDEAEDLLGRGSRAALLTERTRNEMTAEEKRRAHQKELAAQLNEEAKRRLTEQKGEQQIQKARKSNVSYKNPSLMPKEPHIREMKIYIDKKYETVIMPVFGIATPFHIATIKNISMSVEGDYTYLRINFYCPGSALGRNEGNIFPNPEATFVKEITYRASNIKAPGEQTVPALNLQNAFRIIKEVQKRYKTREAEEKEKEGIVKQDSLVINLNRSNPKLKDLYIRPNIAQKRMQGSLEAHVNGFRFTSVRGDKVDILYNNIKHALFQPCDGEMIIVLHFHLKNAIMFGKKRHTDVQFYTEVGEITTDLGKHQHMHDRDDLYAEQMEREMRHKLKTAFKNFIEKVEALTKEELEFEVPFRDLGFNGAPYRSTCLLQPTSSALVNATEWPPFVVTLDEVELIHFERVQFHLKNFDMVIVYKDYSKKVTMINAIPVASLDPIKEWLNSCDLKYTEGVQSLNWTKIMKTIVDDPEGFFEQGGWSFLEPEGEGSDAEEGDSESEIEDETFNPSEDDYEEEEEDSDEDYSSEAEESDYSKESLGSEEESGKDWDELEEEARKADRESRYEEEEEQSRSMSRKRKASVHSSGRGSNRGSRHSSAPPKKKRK
Chain of TFAM (human) (Q00059 43-246 limits assumed): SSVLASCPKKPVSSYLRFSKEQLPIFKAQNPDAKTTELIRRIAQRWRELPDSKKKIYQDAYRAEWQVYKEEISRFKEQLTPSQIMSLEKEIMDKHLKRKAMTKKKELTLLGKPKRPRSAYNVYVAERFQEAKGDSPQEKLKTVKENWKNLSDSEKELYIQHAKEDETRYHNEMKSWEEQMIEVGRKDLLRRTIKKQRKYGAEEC
Chain of EIF3I (human) (Q13347 whole entry): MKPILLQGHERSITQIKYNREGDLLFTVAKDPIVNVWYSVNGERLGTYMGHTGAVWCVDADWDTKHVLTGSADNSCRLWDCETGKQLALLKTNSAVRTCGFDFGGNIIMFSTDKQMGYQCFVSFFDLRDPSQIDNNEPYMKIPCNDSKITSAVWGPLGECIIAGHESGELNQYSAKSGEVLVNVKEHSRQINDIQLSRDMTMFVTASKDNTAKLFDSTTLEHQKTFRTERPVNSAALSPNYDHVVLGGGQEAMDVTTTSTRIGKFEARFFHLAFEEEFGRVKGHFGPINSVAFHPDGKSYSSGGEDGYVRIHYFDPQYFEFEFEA
Chain of KHDRBS1 (human) (Q07666 whole entry): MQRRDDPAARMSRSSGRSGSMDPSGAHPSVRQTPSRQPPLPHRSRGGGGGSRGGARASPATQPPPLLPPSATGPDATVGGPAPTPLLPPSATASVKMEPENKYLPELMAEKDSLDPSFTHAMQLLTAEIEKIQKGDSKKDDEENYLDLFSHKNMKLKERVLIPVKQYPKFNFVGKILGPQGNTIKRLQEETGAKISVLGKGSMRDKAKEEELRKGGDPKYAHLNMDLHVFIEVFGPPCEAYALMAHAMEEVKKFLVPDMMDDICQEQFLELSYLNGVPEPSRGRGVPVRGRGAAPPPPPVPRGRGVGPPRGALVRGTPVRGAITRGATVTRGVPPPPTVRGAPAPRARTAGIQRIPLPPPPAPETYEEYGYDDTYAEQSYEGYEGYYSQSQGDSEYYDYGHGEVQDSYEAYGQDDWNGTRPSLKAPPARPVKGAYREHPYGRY
Chain of PRR4 (Q16378 17-134 limits assumed): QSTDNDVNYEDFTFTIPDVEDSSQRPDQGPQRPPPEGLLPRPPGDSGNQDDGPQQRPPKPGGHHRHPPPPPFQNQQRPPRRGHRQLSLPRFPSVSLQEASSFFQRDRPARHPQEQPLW
Chain of TRIM28 (Q13263 2-835 limits assumed): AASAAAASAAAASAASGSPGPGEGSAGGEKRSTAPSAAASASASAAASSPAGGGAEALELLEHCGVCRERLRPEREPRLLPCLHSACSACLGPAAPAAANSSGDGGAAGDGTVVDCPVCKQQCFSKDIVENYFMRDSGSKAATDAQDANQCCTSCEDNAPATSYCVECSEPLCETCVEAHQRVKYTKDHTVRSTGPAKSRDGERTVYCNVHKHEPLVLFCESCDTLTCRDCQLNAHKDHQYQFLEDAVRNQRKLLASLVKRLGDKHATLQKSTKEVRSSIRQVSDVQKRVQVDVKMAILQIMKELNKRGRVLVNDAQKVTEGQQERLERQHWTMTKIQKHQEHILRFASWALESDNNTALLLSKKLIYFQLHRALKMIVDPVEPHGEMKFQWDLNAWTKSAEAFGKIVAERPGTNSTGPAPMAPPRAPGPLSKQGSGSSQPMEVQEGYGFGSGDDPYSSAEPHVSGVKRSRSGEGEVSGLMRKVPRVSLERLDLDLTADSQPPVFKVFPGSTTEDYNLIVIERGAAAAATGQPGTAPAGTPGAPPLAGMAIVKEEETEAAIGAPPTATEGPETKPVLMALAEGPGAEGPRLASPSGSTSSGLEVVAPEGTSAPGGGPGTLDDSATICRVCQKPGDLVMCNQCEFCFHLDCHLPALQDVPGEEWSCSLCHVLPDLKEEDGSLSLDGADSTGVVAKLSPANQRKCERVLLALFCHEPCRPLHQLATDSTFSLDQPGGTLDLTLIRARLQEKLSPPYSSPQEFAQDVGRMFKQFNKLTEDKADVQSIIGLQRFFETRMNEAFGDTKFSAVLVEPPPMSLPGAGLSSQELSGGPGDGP
Chain of PSMA4 (P25789 whole entry): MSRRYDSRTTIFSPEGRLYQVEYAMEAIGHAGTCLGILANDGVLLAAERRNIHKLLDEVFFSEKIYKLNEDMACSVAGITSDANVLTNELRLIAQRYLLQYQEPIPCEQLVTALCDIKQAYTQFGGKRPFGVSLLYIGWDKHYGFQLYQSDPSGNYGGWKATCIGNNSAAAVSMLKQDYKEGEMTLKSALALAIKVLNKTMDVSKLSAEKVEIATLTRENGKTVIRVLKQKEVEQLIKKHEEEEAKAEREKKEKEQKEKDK
Chain of HSPA5 (P11021 19-654 limits assumed): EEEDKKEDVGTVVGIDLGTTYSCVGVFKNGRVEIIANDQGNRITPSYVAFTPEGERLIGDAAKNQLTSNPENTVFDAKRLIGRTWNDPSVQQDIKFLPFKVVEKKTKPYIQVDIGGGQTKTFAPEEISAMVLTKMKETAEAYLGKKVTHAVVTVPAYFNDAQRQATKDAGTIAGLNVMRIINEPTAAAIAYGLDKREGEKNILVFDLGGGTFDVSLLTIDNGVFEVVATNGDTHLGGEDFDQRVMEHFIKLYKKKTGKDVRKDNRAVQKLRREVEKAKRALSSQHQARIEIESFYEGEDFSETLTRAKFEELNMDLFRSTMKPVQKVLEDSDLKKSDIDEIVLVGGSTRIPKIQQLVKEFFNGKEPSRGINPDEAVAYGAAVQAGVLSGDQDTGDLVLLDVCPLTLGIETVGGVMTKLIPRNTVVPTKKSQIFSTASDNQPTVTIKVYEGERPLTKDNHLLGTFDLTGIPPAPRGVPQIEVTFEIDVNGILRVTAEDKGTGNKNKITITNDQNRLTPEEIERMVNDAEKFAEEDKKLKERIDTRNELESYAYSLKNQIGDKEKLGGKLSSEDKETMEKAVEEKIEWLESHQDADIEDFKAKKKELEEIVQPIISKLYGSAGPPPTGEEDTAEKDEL
Chain of MAGED2 (human) (Q9UNF1 2-606 limits assumed): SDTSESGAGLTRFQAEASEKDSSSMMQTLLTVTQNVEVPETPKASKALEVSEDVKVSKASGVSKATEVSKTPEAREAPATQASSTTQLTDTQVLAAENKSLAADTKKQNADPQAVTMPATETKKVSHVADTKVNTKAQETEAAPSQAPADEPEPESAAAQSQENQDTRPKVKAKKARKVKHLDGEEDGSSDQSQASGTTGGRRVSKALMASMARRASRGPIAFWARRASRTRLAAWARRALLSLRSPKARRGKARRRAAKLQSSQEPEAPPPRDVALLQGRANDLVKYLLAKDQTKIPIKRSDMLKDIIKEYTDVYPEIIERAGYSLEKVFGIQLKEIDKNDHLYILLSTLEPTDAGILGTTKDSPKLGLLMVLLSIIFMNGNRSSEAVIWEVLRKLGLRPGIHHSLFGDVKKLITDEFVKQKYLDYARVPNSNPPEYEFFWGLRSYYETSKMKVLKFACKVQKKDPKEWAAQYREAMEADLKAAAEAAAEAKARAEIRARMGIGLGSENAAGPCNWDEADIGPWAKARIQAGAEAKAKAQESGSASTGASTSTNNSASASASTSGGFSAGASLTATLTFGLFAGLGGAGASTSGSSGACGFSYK
Chain of SMN1 (Q16637 other isoform, or with tags, fused parts or gaps limits assumed): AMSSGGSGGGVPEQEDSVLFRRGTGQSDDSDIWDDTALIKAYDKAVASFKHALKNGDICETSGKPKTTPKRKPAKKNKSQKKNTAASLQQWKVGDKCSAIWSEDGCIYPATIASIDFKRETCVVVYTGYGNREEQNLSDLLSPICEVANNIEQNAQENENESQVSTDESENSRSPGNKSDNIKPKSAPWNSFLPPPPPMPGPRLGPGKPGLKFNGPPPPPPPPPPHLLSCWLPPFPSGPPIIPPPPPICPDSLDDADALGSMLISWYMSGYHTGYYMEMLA

Substance: N-terminal FLAG tagged B3GNT2 (from UniProt Q9NY97 1-397) (enzyme)
- co-IP/MS count (CNP): 5
- co-IP/MS count (SERPINE2): 4
- co-IP/MS count (CALM2): 0
- co-IP/MS count (OS9): 3
- co-IP/MS count (PSMA4): 2
- co-IP/MS count (RPL18A): 3
- co-IP/MS count (PRR4): 2
- co-IP/MS count (LOXL4): 5
- co-IP/MS count (DPM1): 4
- co-IP/MS count (CSPG4): 2
- co-IP/MS count (SMN1): 10
- co-IP/MS count (SLC25A10): 5
- co-IP/MS count (RPL29): 4
- co-IP/MS count (TRIM28): 4
- co-IP/MS count (SLC25A3): 4
- co-IP/MS count (SRSF7): 2
- co-IP/MS count (HSPA5): 70
- co-IP/MS count (SEC16A): 2
- co-IP/MS count (HSPH1): 8
- co-IP/MS count (LRPPRC): 2
- co-IP/MS count (PSMA1): 2
- co-IP/MS count (ALDOA): 2
- co-IP/MS count (RAB1B): 0

Substance: IgG control (Millipore Sigma 12-371) (antibody)
- co-IP mass spectrometry count (C-term IgG) (SUPT16H (human) [1]): 0
- co-IP mass spectrometry count (C-term IgG) (KHDRBS1 (human)): 7
- co-IP mass spectrometry count (C-term IgG) (TFAM (human) [2]): 0
- co-IP mass spectrometry count (C-term IgG) (CPSF6 (human)): 33
- co-IP mass spectrometry count (C-term IgG) (SRP14 (human) [3]): 0
- co-IP mass spectrometry count (C-term IgG) (EIF3I (human) [4]): 0
- co-IP mass spectrometry count (C-term IgG) (CAPRIN1 (human)): 6

Substance: C-terminal FLAG tagged B3GNT2 (from UniProt Q9NY97 1-397) (enzyme)
- co-IP mass spectrometry count (C-term flag) (SUPT16H (human) [5]): 3
- co-IP mass spectrometry count (C-term flag) (TIMP3 (human)): 3
- co-IP mass spectrometry count (C-term flag) (TCP1 (human)): 3
- co-IP mass spectrometry count (C-term flag) (MAGED2 (human)): 3
- co-IP mass spectrometry count (C-term flag) (TFAM (human) [6]): 3
- co-IP mass spectrometry count (C-term flag) (TAF15 (human)): 10
- co-IP mass spectrometry count (C-term flag) (SRP14 (human) [7]): 3
- co-IP mass spectrometry count (C-term flag) (EIF3I (human) [8]): 3

— patent US20240261333A1, “NOVEL TARGETS FOR ENHANCING ANTI-TUMOR IMMUNITY” (THE BROAD INSTITUTE, INC., priority 2021, published 2024)
